{
  "source": "patent US20100247562A1",
  "key": {"human MUC1 (human) [1]": {"molecular_target": "human MUC1 (human) (UniProt P15941)", "sequence (P15941 24-1255 limits assumed)": "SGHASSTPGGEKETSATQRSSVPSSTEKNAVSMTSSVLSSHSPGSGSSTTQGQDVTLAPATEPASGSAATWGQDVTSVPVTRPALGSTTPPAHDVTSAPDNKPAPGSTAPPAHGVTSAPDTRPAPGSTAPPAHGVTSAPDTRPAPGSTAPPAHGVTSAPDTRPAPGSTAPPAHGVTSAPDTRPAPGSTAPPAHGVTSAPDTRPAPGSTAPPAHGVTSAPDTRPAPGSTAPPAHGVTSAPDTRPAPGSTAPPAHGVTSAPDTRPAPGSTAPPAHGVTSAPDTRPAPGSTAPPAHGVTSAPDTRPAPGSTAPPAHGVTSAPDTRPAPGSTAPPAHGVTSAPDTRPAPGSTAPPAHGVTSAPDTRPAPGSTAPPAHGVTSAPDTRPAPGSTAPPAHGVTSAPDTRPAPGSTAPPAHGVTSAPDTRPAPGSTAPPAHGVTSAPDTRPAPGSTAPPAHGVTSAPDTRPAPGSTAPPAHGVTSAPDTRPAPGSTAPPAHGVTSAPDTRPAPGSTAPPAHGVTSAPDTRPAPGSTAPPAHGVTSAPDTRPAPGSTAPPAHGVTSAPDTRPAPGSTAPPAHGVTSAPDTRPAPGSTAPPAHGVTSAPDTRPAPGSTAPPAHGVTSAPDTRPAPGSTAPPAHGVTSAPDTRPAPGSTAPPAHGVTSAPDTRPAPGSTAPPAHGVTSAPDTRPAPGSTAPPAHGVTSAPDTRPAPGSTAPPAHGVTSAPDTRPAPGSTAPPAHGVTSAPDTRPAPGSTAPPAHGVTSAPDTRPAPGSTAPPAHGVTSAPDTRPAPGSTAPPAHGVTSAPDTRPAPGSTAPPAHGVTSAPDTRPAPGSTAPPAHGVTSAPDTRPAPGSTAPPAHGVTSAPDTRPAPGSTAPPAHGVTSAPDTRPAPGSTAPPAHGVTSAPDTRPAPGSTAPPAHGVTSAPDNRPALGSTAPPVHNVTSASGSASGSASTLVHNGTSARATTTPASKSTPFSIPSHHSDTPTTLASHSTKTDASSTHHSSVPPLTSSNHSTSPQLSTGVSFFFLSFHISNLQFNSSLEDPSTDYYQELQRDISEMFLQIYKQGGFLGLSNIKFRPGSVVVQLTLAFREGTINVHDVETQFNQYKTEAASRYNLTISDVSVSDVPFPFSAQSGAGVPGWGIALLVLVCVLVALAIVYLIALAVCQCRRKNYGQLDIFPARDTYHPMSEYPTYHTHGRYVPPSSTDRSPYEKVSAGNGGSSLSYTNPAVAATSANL", "test": "co-immunoprecipitation with anti-HSP70, anti-MUC1 immunoblot, densitometry; lane 6 (taken to be FC/MUC1 fusion cells)"}, "human MUC1 (human) [2]": {"molecular_target": "human MUC1 (human) (UniProt P15941)", "test": "co-immunoprecipitation with anti-HSP70, anti-MUC1 immunoblot, densitometry; lane 4 (taken to be MC38/MUC1 tumor cells)"}},
  "data": [
    {"substance": "HSP70 (endogenous, immunoprecipitated with anti-HSP70 antibody Ab46 or purified by ADP-agarose from MC38/MUC1 tumor cells or FC/MUC1 DC-tumor fusion cells)", "values": [
      {"measurement": "relative density of MUC1 (lane 6)", "setting": "human MUC1 (human) [1]", "result": 41.5, "unit": "%"},
      {"measurement": "relative density of MUC1 (lane 4)", "setting": "human MUC1 (human) [2]", "result": 10.7, "unit": "%"}
    ]}
  ]
}
